Where no end group is shown, it is not given here.
Assays:
[1] = target: Murine APRIL (K104-L241) thioredoxin fusion protein (murine) (UniProt Q9D777); experiment: SPR (BIAcore 3000), APRIL immobilized, receptor as analyte, 1:1 model
[2] = target: T1, Human BAFF (residues 82-285) (human, UniProt Q9Y275 82-285); experiment: competition ELISA; immobilized BAFF, biotinylated miniBR3 tracer (FIG. 7)
T1 construct: also called BAFF82-285
Protocol: The plate was washed with PBS and blocked for 1 hr with 200 μl of 0.2% BSA in PBS at room temperature. […] The plate was washed with PBS/Tween-20 and incubated with 100 μl/well of 0.1 U/ml Streptavidin-POD (Boehringer Mannheim) for 15 minutes at room temperature. After washing the plate with PBS/0.05% Tween-20 followed by a final wash in PBS, the plate was incubated for 5 min with 100 μl/well PBS substrate solution containing 0.8 mg/ml OPD (Sigma) and 0.01% H₂O₂.

[3] = target: T1, Human BAFF (residues 82-285); experiment: SPR (BIAcore 3000), BAFF immobilized, receptor as analyte
Protocol: Measurement of binding constants for receptors to ligands. […] CM5 chips from BIAcore were docked according to manufacturer instructions. Then, BIAcore system was primed with 0.2 μm filtered buffer containing 10 mM Hepes pH 7.2, 150 mM NaCl, 0.005% Tween20. After buffer priming, the flow cells were normalized with 70% glycerol. Each flow cell surface was activated individually in preparation for linkage of the ligand to the chip with a 1:1 mixture of EDC(N-ethyl-N′-(3-dimethyl aminopropyl)-carbodiimide hydrochloride) and NHS(N-hydroxysuccinimide). […] Generally, the ligand to be immobilized (30 μg/ml in 10 mM NaOAc, pH 5 buffer) was injected into the system at 40 μl/min. Once approximately 400 RU was generated, the flow cell was blocked with ethanolamine. […] The system was then primed again.
The ligand-receptor complex was allowed to dissociate by washing the flow cell at 30 μl/min for 600 seconds. Alternatively, if several binding measurements over the same flow cell were to be performed, the ligand-receptor complex was allowed to dissociate by washing the flow cell at 30 μl/min for 900 seconds. Sensorgrams were recorded for each binding assay. A 1:1 Langmuir binding equation was used to simultaneously fit the association and dissociation rates of the ligand-analyte interactions. kₐ, kd, KD were calculated using curve fit analysis software provided with the BiaCore instrument

T1 sequence (Q9Y275 82-285): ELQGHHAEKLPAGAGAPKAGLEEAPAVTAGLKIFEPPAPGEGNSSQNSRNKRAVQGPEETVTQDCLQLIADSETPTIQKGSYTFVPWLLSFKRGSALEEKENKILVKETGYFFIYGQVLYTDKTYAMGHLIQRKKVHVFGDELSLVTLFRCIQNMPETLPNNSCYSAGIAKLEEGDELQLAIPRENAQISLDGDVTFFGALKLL
Sequence of Murine APRIL (K104-L241) thioredoxin fusion protein (murine) (Q9D777 104-241, form in doubt): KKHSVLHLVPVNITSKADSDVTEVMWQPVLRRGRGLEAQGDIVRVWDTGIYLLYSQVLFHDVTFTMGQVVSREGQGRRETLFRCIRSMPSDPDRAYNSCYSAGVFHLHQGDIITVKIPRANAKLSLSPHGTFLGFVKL

Binder: AGQCSQNEYFDSLLHACIPCQLRCSSNTPPLTCQRYCNASVTNSVKG (Fc fusion, not shown: a dimerising Fc or GST, also called wt BCMA-Fc; BCMA-Fc wt) [BCMA-Fc (BCMA(wt)-Fc immunoadhesin)]
- koff [1]: 0.0001 s⁻¹
- IC50 [2]: 7 to 10 nM

B1: BCMA ECD from baculovirus expression (human BCMA residues 4-53, His-tagged) (receptor, not shown: small tags and cut ends)
chain: MAGQCSQNEYFDSLLHACIPCQLRCSSNTPPLTCQRYCNASVTNSVKGTN
modifications: not fully specified (N-terminus); ends and bridges not checked; also: mixture of glycosylated and non-glycosylated species
notes: also called BCMA(baculovirus); baculovirus BCMA
- binding result [3]: no binding (tested: analyte 6.25 nM to 200 nM)
